{"source": "patent US11549134B2", "about": "“Modified amadoriase and method for producing the same, agent for improving surfactant resistance of amadoriase and composition for measuring HbA1c using the same” (Kikkoman Corporation, priority 2013, dated 2023)", "molecules": {"B1": {"name": "CFP-T7: amadoriase derived from the genus Coniochaeta, SEQ ID NO: 1; triple variant with mutations at positions 272, 302 and 388 (protein, listed as Coniochaeta sp.)", "chain": "MTSNRADTRVIVVGGGGTIGSSTALHLVRSGYAPANITVLDTFEIPSAQSAGHDLNKIMGIRLRNKVDLQMSLEARQMWKEDELFQPFFHNTGRMDCEHTPEGIEDLKKQYQALHDAGAGLEKTHAWLDNEDEILSKMPLLQRDQIQGWKAIWSQDGGWLAAAKAINAIGQFLKERGVKFGFGGAGSFKQPLFDDEGTTCIGVETADGTKYYADKVVLAAGAWSPTLVDLEDQCCSKAWVYAHIQLTPEEAAEYKGVPVVYNGEFGFFFEPDEFGVIKVCDEFPGFSRFKEHQPYGAPSPKRISVPRSHAKHPTDTYPDASEVSIKKAIATFLPRFQDKELFNRALCWCTDTADAALLMCEHPKWKNFILATGDSGHSFKILPNVGKYVVELIEGRLPEEMAYQWRWRPGGDALKSRRAAPPKDLADMPGWKHDPKL"}}, "type_in_all_cases": "biochemical", "key": {"[1]": {"assay": "Surfactant resistance (residual activity) of CFP-T7 single variants, 0.01% CTAC", "details": "30°C, 5 minutes, 30 mM MES/21 mM Tris buffer (pH6.5), crude enzyme", "description": "Reagent 1 (2.7 ml), reagent 2 (100 μl) and reagent 3 (100 μl) were mixed and preheated at 37° C. for 5 minutes. Then, to the mixture, an enzyme solution (100 μl) was added and thoroughly mixed. Thereafter, the absorbance of the mixture at 555 nm is measured by a spectrophotometer (U-3010, manufactured by Hitachi High-Technologies). Measurement is performed at 555 nm from one minute to three minutes and an absorbance change per minute is specified as the measurement value. A control solution is prepared in the same manner as above except that ion-exchanged water (100 μl) is used in place of reagent 3 (100 μl).\nAn amadoriase crude enzyme solution or an amadoriase purified sample is diluted with a 30 mM MES/21 mM Tris buffer solution (pH6.5) so as to have a concentration of about 1.0 U/ml. To this, CTAC (for example, manufactured by Tokyo Kasei Kogyo Co., Ltd.) is added so as to obtain a final concentration 0.01% (w/v) or 0.04%. The resultant mixture is heated at 30° C. for 5 minutes. After heating, the mixture is diluted double with a 10 mM phosphate buffer (pH7.0) containing 0.15% BSA to prepare a sample. The enzyme activities of the sample before and after a surfactant treatment are measured by the method described in Section B above. […] In this manner, surfactant resistance is evaluated. […]"}, "[2]": {"assay": "Surfactant resistance (residual activity) of CFP-D multiple variants, 0.04% CTAC", "details": "30°C, 5 minutes, crude enzyme", "description": "An amadoriase crude enzyme solution or an amadoriase purified sample is diluted with a 30 mM MES/21 mM Tris buffer solution (pH6.5) so as to have a concentration of about 1.0 U/ml. To this, CTAC (for example, manufactured by Tokyo Kasei Kogyo Co., Ltd.) is added so as to obtain a final concentration 0.01% (w/v) or 0.04%. The resultant mixture is heated at 30° C. for 5 minutes. After heating, the mixture is diluted double with a 10 mM phosphate buffer (pH7.0) containing 0.15% BSA to prepare a sample. The enzyme activities of the sample before and after a surfactant treatment are measured by the method described in Section B above. The ratio of activity of the sample after the surfactant treatment relative to the activity of the sample before the surfactant treatment (regarded as 100), i.e., the residual activity (%), is obtained. In this manner, surfactant resistance is evaluated. […]"}, "[3]": {"assay": "Surfactant resistance (residual activity), 0.04% SDS", "details": "30 mM MES/21 mM Tris buffer (pH 6.5)", "description": "An amadoriase crude enzyme solution or an amadoriase purified sample is diluted with a 30 mM MES/21 mM Tris buffer solution (pH6.5) so as to have a concentration of about 1.0 U/ml. To this, CTAC (for example, manufactured by Tokyo Kasei Kogyo Co., Ltd.) is added so as to obtain a final concentration 0.01% (w/v) or 0.04%. The resultant mixture is heated at 30° C. for 5 minutes. After heating, the mixture is diluted double with a 10 mM phosphate buffer (pH7.0) containing 0.15% BSA to prepare a sample. The enzyme activities of the sample before and after a surfactant treatment are measured by the method described in Section B above. […] In this manner, surfactant resistance is evaluated.\nThe stability of CFP-D was evaluated using sodium dodecyl sulfate (hereinafter indicated with “SDS”) in place of the surfactant CTAC used in Example 2. The surfactant resistance of the modified amadoriases was evaluated in accordance with a measurement method for surfactant resistance according to Example 1 although under surfactant treatment conditions in which the amadoriases were each diluted in a 30 mM MES/21 mM Tris buffer solution (pH 6.5) and mixed with 0.04% SDS. In this respect, it was confirmed that when the warmed sample was again measured for activity 30 minutes after 2-fold dilution in a BSA solution, there was no change in the activity value."}, "[4]": {"assay": "Measurement of fructosyl peptide sample (αFVH) under mixing of CTAC, change in absorbance at 751 nm", "description": "The purified enzyme of CFP-T7 and CFP-D7 obtained in Example 3-2 was used to measure a sample as shown below. The activity values of CFP-T7 and CFP-D7 were determined using (reagent 1) adjusted to pH 7.0 with αFVH at a final concentration of 5 mM as a substrate according to the method for measuring amadoriase activity.\n(Reagent 4) αFVH (125 mg) was dissolved in ion-exchanged water, the volume of the solution was fixed to 10 ml, and thereby a 30 mM substrate solution was obtained. In addition, the resultant was diluted by 1/714 with a CTAC solution to provide a 42 μM αFVH/0% to 0.2% CTAC solution.\n(Reagent 6) (50 μl) was added to a mixed solution of 135 μl of (reagent 5) warmed at 37° C. for 5 minutes in advance and 25 μl of the sample prepared in (11) above to start reaction, and absorbance at a wavelength of 751 nm after reaction at 37° C. for 5 minutes was measured using an automated analyzer, Bio Majesty JCA-BM1650 (from JEOL Ltd.). Absorbance (reagent blank) at a wavelength of 751 nm measured by a similar operation for (reagent 4) prepared using ion-exchanged water in place of the substrate solution was used as a control to calculate the amount of change in absorbance (difference) when each sample was measured, using the following equation. The final concentration of a colorimetric substrate, DA-64, was 0.15 mM; the final concentration of αFVH in the case of the presence of a substrate was 5 μM; and the length (optical path) of the cell used for absorbance measurement was 1 cm. Amount of change in absorbance=ΔAes−Ae0\nThe amount of change in absorbance when αFVH/0% to 0.2% CTAC were used as samples was calculated.\nThe purified preparations of amadoriases obtained as described above were used as samples to measure αFVH under the mixing of CTAC using PnFX and NvFX as in Example 5."}}, "data": [{"molecule": "B1", "values": [{"measurement": "Residual Activity(%)", "setting": "[1]", "result": 69.9, "unit": "%"}, {"measurement": "Residual Activity(%)", "setting": "[2]", "result": 2.27, "unit": "%"}, {"measurement": "Residual Activity(%)", "setting": "[3]", "result": 2.76, "unit": "%"}, {"measurement": "Amount of Change in Absorbance at Wavelength of 751 nm under Mixing of Each Concentration of CTAC", "setting": "[4]; Mixing of CTAC 0%, as in Example 5, Table 7", "result": 0.150}, {"measurement": "Amount of Change in Absorbance at Wavelength of 751 nm under Mixing of Each Concentration of CTAC", "setting": "[4]; Mixing of CTAC 0%, αFVH final 5 μM, 37°C, 5 minutes, Table 5", "result": 0.150}, {"measurement": "Amount of Change in Absorbance at Wavelength of 751 nm under Mixing of Each Concentration of CTAC", "setting": "[4]; Mixing of CTAC 0.005%, αFVH final 5 μM, 37°C, 5 minutes, Table 5", "result": 0.111}, {"measurement": "Amount of Change in Absorbance at Wavelength of 751 nm under Mixing of Each Concentration of CTAC", "setting": "[4]; Mixing of CTAC 0.01%, as in Example 5, Table 7", "result": 0.077}, {"measurement": "Amount of Change in Absorbance at Wavelength of 751 nm under Mixing of Each Concentration of CTAC", "setting": "[4]; Mixing of CTAC 0.01%, αFVH final 5 μM, 37°C, 5 minutes, Table 5", "result": 0.077}, {"measurement": "Amount of Change in Absorbance at Wavelength of 751 nm under Mixing of Each Concentration of CTAC", "setting": "[4]; Mixing of CTAC 0.02%, as in Example 5, Table 7", "result": 0.031}, {"measurement": "Amount of Change in Absorbance at Wavelength of 751 nm under Mixing of Each Concentration of CTAC", "setting": "[4]; Mixing of CTAC 0.02%, αFVH final 5 μM, 37°C, 5 minutes, Table 5", "result": 0.031}, {"measurement": "Amount of Change in Absorbance at Wavelength of 751 nm under Mixing of Each Concentration of CTAC", "setting": "[4]; Mixing of CTAC 0.04%, as in Example 5, Table 7", "result": 0.005}, {"measurement": "Amount of Change in Absorbance at Wavelength of 751 nm under Mixing of Each Concentration of CTAC", "setting": "[4]; Mixing of CTAC 0.04%, αFVH final 5 μM, 37°C, 5 minutes, Table 5", "result": 0.005}]}]}
